In patent US20230093708A1, “PROTEIN NANOPARTICLE DESIGN AND APPLICATION” (Duke University, priority 2020, published 2023):

B1: RLP40-ELP80: RLP-ELP block co-polypeptide forming spherical micelles (protein)
chain: QYPSDGRGQYPSDGRGQYPSDGRGQYPSDGRGQYPSDGRGQYPSDGRGQYPSDGRGQYPSDGRGQYPSDGRGQYPSDGRGQYPSDGRGQYPSDGRGQYPSDGRGQYPSDGRGQYPSDGRGQYPSDGRGQYPSDGRGQYPSDGRGQYPSDGRGQYPSDGRGQYPSDGRGQYPSDGRGQYPSDGRGQYPSDGRGQYPSDGRGQYPSDGRGQYPSDGRGQYPSDGRGQYPSDGRGQYPSDGRGQYPSDGRGQYPSDGRGQYPSDGRGQYPSDGRGQYPSDGRGQYPSDGRGQYPSDGRGQYPSDGRGQYPSDGRGQYPSDGRGGAGVPGGGVPGAGVPGGGVPGAGVPGGGVPGAGVPGGGVPGAGVPGGGVPGAGVPGGGVPGAGVPGGGVPGAGVPGGGVPGAGVPGGGVPGAGVPGGGVPGAGVPGGGVPGAGVPGGGVPGAGVPGGGVPGAGVPGGGVPGAGVPGGGVPGAGVPGGGVPGAGVPGGGVPGAGVPGGGVPGAGVPGGGVPGAGVPGGGVPGAGVPGGGVPGAGVPGGGVPGAGVPGGGVPGAGVPGGGVPGAGVPGGGVPGAGVPGGGVPGAGVPGGGVPGAGVPGGGVPGAGVPGGGVPGAGVPGGGVPGAGVPGGGVPGAGVPGGGVPGAGVPGGGVPGAGVPGGGVPGAGVPGGGVPGAGVPGGGVPGAGVPGGGVPGAGVPGGGVPGAGVPGGGVPGAGVPGGGVPGAGVPGGGVPGAGVPGGGVPGAGVPGGGVPGAGVPGGGVPGAGVPGGGVPGAGVPGGGVPGAGVPGGGVPGAGVPGGGVPGAGVPGGGVPGAGVPGGGVPGAGVPGGGVPGAGVPGGGVPGAGVPGGGVPGAGVPGGGVPGAGVPGGGVPGAGVPGGGVPGAGVPGGGVPGAGVPGGGVPGAGVPGGGVPGAGVPGGGVPGAGVPGGGVPGAGVPGGGVPGAGVPGGGVPGAGVPGGGVPGAGVPGGGVPGAGVPGGGVPGAGVPGGGVPGAGVPGGGVPGAGVPGGGVPGAGVPGGGVPGAGVPGGGVPGAGVPGGGVPGAGVPGGGVPGAGVPGGGVPGAGVPGGGVPGAGVPGGGVPGAGVPGGGVPGAGVPGGGVPGAGVPGGGVPGAGVPGGGVP
B2: RLP80-ELP80: RLP-ELP block co-polypeptide forming worm-like micelles (protein)
chain: QYPSDGRGQYPSDGRGQYPSDGRGQYPSDGRGQYPSDGRGQYPSDGRGQYPSDGRGQYPSDGRGQYPSDGRGQYPSDGRGQYPSDGRGQYPSDGRGQYPSDGRGQYPSDGRGQYPSDGRGQYPSDGRGQYPSDGRGQYPSDGRGQYPSDGRGQYPSDGRGQYPSDGRGQYPSDGRGQYPSDGRGQYPSDGRGQYPSDGRGQYPSDGRGQYPSDGRGQYPSDGRGQYPSDGRGQYPSDGRGQYPSDGRGQYPSDGRGQYPSDGRGQYPSDGRGQYPSDGRGQYPSDGRGQYPSDGRGQYPSDGRGQYPSDGRGQYPSDGRGQYPSDGRGQYPSDGRGQYPSDGRGQYPSDGRGQYPSDGRGQYPSDGRGQYPSDGRGQYPSDGRGQYPSDGRGQYPSDGRGQYPSDGRGQYPSDGRGQYPSDGRGQYPSDGRGQYPSDGRGQYPSDGRGQYPSDGRGQYPSDGRGQYPSDGRGQYPSDGRGQYPSDGRGQYPSDGRGQYPSDGRGQYPSDGRGQYPSDGRGQYPSDGRGQYPSDGRGQYPSDGRGQYPSDGRGQYPSDGRGQYPSDGRGQYPSDGRGQYPSDGRGQYPSDGRGQYPSDGRGQYPSDGRGQYPSDGRGQYPSDGRGQYPSDGRGQYPSDGRGGPGAGVPGGGVPGAGVPGGGVPGAGVPGGGVPGAGVPGGGVPGAGVPGGGVPGAGVPGGGVPGAGVPGGGVPGAGVPGGGVPGAGVPGGGVPGAGVPGGGVPGAGVPGGGVPGAGVPGGGVPGAGVPGGGVPGAGVPGGGVPGAGVPGGGVPGAGVPGGGVPGAGVPGGGVPGAGVPGGGVPGAGVPGGGVPGAGVPGGGVPGAGVPGGGVPGAGVPGGGVPGAGVPGGGVPGAGVPGGGVPGAGVPGGGVPGAGVPGGGVPGAGVPGGGVPGAGVPGGGVPGAGVPGGGVPGAGVPGGGVPGAGVPGGGVPGAGVPGGGVPGAGVPGGGVPGAGVPGGGVPGAGVPGGGVPGAGVPGGGVPGAGVPGGGVPGAGVPGGGVPGAGVPGGGVP

Columns and labels:
[1] = Static and dynamic light scattering (SLS/DLS) of block co-polypeptides; format: physicochemical; conditions: for Nagg / Rg(nm) / Rh (nm) / ρ: Table 1; for Nagg / Rg(nm) / Rh (nm): 10 μM in PBS, 15 °C; for ρ: shape factor Rg/Rh
Outline: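 Samples at 10 μM in PBS (140 mM NaCl, 10 mM phosphate, 3 mM KCl, pH 7.4), filtered 0.45 μm, measured at 15 °C over 30°–150° in 5° steps. Rh from cumulant fit of DLS, extrapolated to zero angle. Rg and MW from partial Zimm plots of SLS.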

[2] = Cryo-TEM micelle core size, inter-core spacing and aspect ratio; format: physicochemical; conditions: for Spacing (nm) / Core radius (nm): Table 2, mean ± standard deviation; for Spacing (nm): inter-core spacing; for Core radius (nm): 10 μM in 140 mM PBS; for Core Diameter (nm) [n = 30] / Intra-core Spacing (nm) [n = 30]: Table 8, 15 °C, 140 mM PBS, 10 μM
Outline: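 Vitrified 10 μM RLPn-ELP80 (3 s blot, chamber at 15° C., 100% humidity) imaged by cryo-TEM at 80 keV. Core size and spacing measured manually on at least 25 particles; aspect ratio from the longest straight line of a particle and its perpendicular.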

[3] = Temperature-programmed dynamic light scattering; format: physicochemical; conditions: between 4 °C and 37 °C; micelles 20-37 °C; 10 μM in 140 mM PBS
Experimental: Temperature-programmed dynamic light scattering experiments were carried out using a Dynapro plate reader (Wyatt Technology; Santa Barbara, Calif.) with samples filtered through 0.45 μm Millex-GV filters. Data were collected at increments of 1° C., and the cumulant fit hydrodynamic radius was taken as the radius. The Tt was defined as the temperature at which aggregates of size hundreds of nanometers were formed.
Each block co-polypeptide was analyzed by dynamic light scattering (DLS) at several temperatures between 4° C. and 37° C. to determine the thermal stability of the micelles, and to determine their radius of hydration (Rh). […] In contrast, RLP40-ELP80 (SEQ ID NO: 84) and RLP40-ELP80-Fn3 (SEQ ID NO: 96) self-assembled into micelles with a Rh of 30 and 32 nm, respectively, between 20-37° C. (FIG. 15).
Therefore, to get a more accurate picture, we monitored the Rh as we slowly cooled the solution. We observed two different overall behaviors. [S]-40-[QHN]-40 (SEQ ID NO: 100) upon cooling underwent a clear unimer to micelle transition at ˜55° C. and a clear micelle to aggregate transition at 28° C. (FIG. 32B). A unimer to micelle transition that is temperature dependent is known as the critical micellization temperature (CMT). As we know from before, this UCST aggregation temperature is dependent on the solution concentration. [S]-80-[QHN]-40 (SEQ ID NO: 101) remained a micelle at the highest temperature we could measure with the instrument. Upon cooling the size of the aggregate increased slightly until a clear aggregate transition at 18° C.

K562+αvβ3 cell line = assay: Flow cytometry cell uptake of Alexa488-labeled micelles; format: cell-based; conditions: 10 μM, 37 °C, 2 hours
Experimental: Approximately 1×10^8 cells were harvested from either K562 or K562+αvβ3 cell lines and resuspended into 1 mL of serum-free medium containing 10 μM of the various Fn3-decorated and control block polypeptides. LM609 antibody was also resuspended at 10 μM in serum-free medium. Micelles were prepared from a mixture of ˜10% Alexa 488 dye-labeled RLP-ELP block co-polypeptides and 90% unlabeled polypeptides on a molar basis. The cells were incubated at 37° C. with the labeled micelles for a specified time, then rinsed with 1 mL of Hanks Buffered Saline Solution (HBSS), collected by centrifugation at 500 RCF for 5 min at 20° C., and resuspended in HBSS+1% BSA. Cells were maintained on ice until they were analyzed by flow cytometry (BD Accuri C5). The cell fluorescence intensity of Alexa 488 (Green) was quantified after gating to remove cellular debris on unstained control samples.
To assess the intracellular uptake of these particles, we used a cell line stably transfected with the αvβ3 integrin. The native cell line, K562, has endogenously low levels of expression of this receptor and therefore serves as the receptor-negative control, and the un-decorated RLPXX-ELP80 micelles serve as ligand-negative controls for each type—size and shape—of micelle. […]

Row | Molecule | Nagg [1] | Rg(nm) [1] | Rh (nm) [1] | ρ [1] | core radius (cryo-TEM) [2] | spacing between particle cores (cryo-TEM) [2] | Spacing (nm) [2] | Core radius (nm) [2] | Core Diameter (nm) [n = 30] [2] | Intra-core Spacing (nm) [n = 30] [2] | Rh (DLS at several temperatures) [3] | cell fluorescence (Geometric Mean±StDev) (K562+αvβ3 cell line) | aggregation number (Nagg) [1] | hydrodynamic radius (Rh) [1] | radius of gyration (Rg) [1] | shape factor / form factor (Rg/Rh) [1]
1 | B1 | 68 | 29.9 nm | 33.3 nm | 0.89 | approximately 12.8 nm | 29.5 nm | 29.5 ± 4.8 nm | 12.8 ± 1.8 nm | 24.3 ± 2.8 nm | 23.6 ± 4.5 nm | 30 nm | 8686±8787 | – | – | – | –
2 | B2 | 2240 | 145.4 nm | 114.3 nm | 1.27 | 19.9 nm | 34.7 nm | 34.7 ± 4.2 nm | 19.9 ± 2.8 nm | 39.4 ± 5.4 nm | 35.0 ± 4.5 nm | 112 nm | 24904±13884 | in the thousands of chains | over 100 nm | above 140 nm | around 1.2
